By Km is commonly meant the concentration of substrate that gives half-maximal velocity. Broadly, the kcat is the maximal rate divided by the concentration of active sites. In general, kcat/Km refers to the second-order rate constant that governs catalysis at low substrate concentration.

In series [1] the test system is CC(=O)Oc1ccc([N+](=O)[O-])cc1. Kind of series: purified protein. It counts as biochemical, Bacteroides ovatus. The conditions noted are these: pH 8.0, 37 °C, 100 mM buffer.
Series [2] concerns CC(=O)Oc1ccc2c(C)cc(=O)oc2c1. Description: purified protein. Type of series: biochemical, Bacteroides ovatus. The conditions noted are these: pH 8.0, 37 °C, 100 mM buffer.

On to BoCE1 (Bacteroides ovatus), for which, in series [1], the Km is 1400 ± 100 µM, the turnover number (kcat) was found to be 0.7 ± 0.02 s⁻¹ and the catalytic efficiency (kcat/Km) was 500 ± 40 M⁻¹ s⁻¹. For the same substance, in series [2], the Km worked out at 40 ± 10 µM, the kcat is 0.28 ± 0.01 s⁻¹ and the kcat/Km is 7100 ± 1600 M⁻¹ s⁻¹.

BoCE6 (Bacteroides ovatus): in series [1], the Km amounted to 1800 ± 200 µM, the kcat was found to be 36 ± 2.2 s⁻¹ and the kcat/Km was determined as 20100 ± 2700 M⁻¹ s⁻¹. In series [2], the Km is 27 ± 6 µM, the kcat came to 1.2 ± 0.1 s⁻¹ and the catalytic efficiency (kcat/Km) was 42800 ± 10000 M⁻¹ s⁻¹.

The values above are taken from paper PMC7110780, “Multimodular fused acetyl–feruloyl esterases from soil and gut Bacteroidetes improve xylanase depolymerization of recalcitrant biomass” (Biotechnology for Biofuels, 2020).
